Data set [1] addresses GFP^2-Pflu-H1-RLuc2 fusion protein.
In data set [2] the target is GFP^2-Pflu-H4-RLuc2 fusion protein.
The target of data set [3] is GFP^2-Pflu-H3-RLuc2 fusion protein.
The target in data set [4] is GFP^2-Pflu-H2-RLuc2 fusion protein.
Data set [5] concerns the target GFP^2-Pflu3-RLuc2 fusion protein (Pflu sensor 3).
Data set [6] has as its target GFP^2-plas1-RLuc2 fusion protein (BRET^2 plasmin sensor).

Several values for one entry are separate records, joined by “and”; a condition that tells them apart may be missing. Equal entries are not always repeated.

B1: bovine plasmin (Sigma) (protein)
chain: RIYLLECKTGNGQTYRGTTAETKSGVTCQKWSATSPHVPKFSPEKFPLAGLEENYCRNPDNDENGPWCYTTDPDKRYDYCDIPECEDKCMHCSGENYEGKIAKTMSGRDCQAWDSQSPHAHGYIPSKFPNKNLKMNYCRNPDGEPRPWCFTTDPQKRWEFCDIPRCTTPPPSSGPKYQCLKGTGKNYGGTVAVTESGHTCQRWSEQTPHKHNRTPENFPCKNLEENYCRNPNGEKAPWCYTTNSEVRWEYCTIPSCESSPLSTERMDVPVPPEQTPVPQDCYHGNGQSYRGTSSTTITGRKCQSWSSMTPHRHLKTPENYPNAGLTMNYCRNPDADKSPWCYTTDPRVRWEFCNLKKCSETPEQVPAAPQAPGVENPPEADCMIGTGKSYRGKKATTVAGVPCQEWAAQEPHQHSIFTPETNPQSGLERNYCRNPDGDVNGPWCYTMNPRKPFDYCDVPQCESSFDCGKPKVEPKKCSGRIVGGCVSKPHSWPWQVSLRRSSRHFCGGTLISPKWVLTAAHCLDNILALSFYKVILGAHNEKVREQSVQEIPVSRLFREPSQADIALLKLSRPAIITKEVIPACLPPPNYMVAARTECYITGWGETQGTFGEGLLKEAHLPVIENKVCNRNEYLDGRVKPTELCAGHLIGGTDSCQGDSGGPLVCFEKDKYILQGVTSWGLGCARPNKPGVYVRVSPYVPWIEETMRRN
Turning to B1, the Plasmin response (%), BRET^2, 1 nM Bovine plasmin in UHT milk in data set [1] amounted to 4.9%; in data set [2], 6.3%; in data set [3], 0.9%; in data set [4], 7.9%.

B2: human plasmin (Sigma) (protein)
chain: KVYLSECKTGNGKNYRGTMSKTKNGITCQKWSSTSPHRPRFSPATHPSEGLEENYCRNPDNDPQGPWCYTTDPEKRYDYCDILECEEECMHCSGENYDGKISKTMSGLECQAWDSQSPHAHGYIPSKFPNKNLKKNYCRNPDRELRPWCFTTDPNKRWELCDIPRCTTPPPSSGPTYQCLKGTGENYRGNVAVTVSGHTCQHWSAQTPHTHNRTPENFPCKNLDENYCRNPDGKRAPWCHTTNSQVRWEYCKIPSCDSSPVSTEQLAPTAPPELTPVVQDCYHGDGQSYRGTSSTTTTGKKCQSWSSMTPHRHQKTPENYPNAGLTMNYCRNPDADKGPWCFTTDPSVRWEYCNLKKCSGTEASVVAPPPVVLLPDVETPSEEDCMFGNGKGYRGKRATTVTGTPCQDWAAQEPHRHSIFTPETNPRAGLEKNYCRNPDGDVGGPWCYTTNPRKLYDYCDVPQCAAPSFDCGKPQVEPKKCPGRVVGGCVAHPHSWPWQVSLRTRFGMHFCGGTLISPEWVLTAAHCLEKSPRPSSYKVILGAHQEVNLEPHVQEIEVSRLFLEPTRKDIALLKLSSPAVITDKVIPACLPSPNYVVADRTECFITGWGETQGTFGAGLLKEAQLPVIENKVCNRYEFLNGRVQSTELCAGHLAGGTDSCQGDSGGPLVCFEKDKYILQGVTSWGLGCARPNKPGVYVRVSRFVTWIEGVMRNN
For the protein B2, the Linear range (10%-90% BRET^2 response), 50% full fat UHT milk in data set [5] was 452 nM and 3620 nM. In data set [6], the “Linear response, BRET^2, raw milk, one-step pre-treatment protocol” value is “between 1.6 nM (90%) and 128 nM (10%) plasmin”; the “Linear response, BRET^2, raw milk, one-step pre-treatment with low power sonication” value was “linear between 5.5 nM (90%) and 107 nM (10%)”.

For the origin of these results see US20190345535.
